Test results published in publication PMC12827578.

Target: CTLA4-FRB*-HA (UniProt P16410)

- CTLA4-FH protein level by Western blot after Dox induction of FF-USP15 WT (18 h) and A/C 500 nM (24 h): > 2 fold
Substance: FLAG-FKBP-USP15 WT (from UniProt P62942 2-108) (enzyme)
